Measurements from patent US9896488B2.

Target: Fc-tagged extracellular domain of RPTPσ (wild type) (mouse) (UniProt B0V2N1)
Assay: ELISA: RPTPσ-Fc on protein G plates, biotinylated aggrecan (5 ug/ml) preincubated with protamine (0-5 ug/ml). The reference is binding without protamine.

Substance: Biotinylated aggrecan (from UniProt P13608)
- fold increase of binding in the presence of protamine: 2 fold
